22 molecules from patent publication US20230067770A1 (SHANGHAI HENLIUS BIOTECH, published 2023) can be followed below.

Test [1] has as its target T1, human-CD137 (ELISA antigen of the affinity maturation screen) (human, UniProt Q07011 24-186, limits assumed).
T1 construct: also called human-CD137 ECD
Kind of test: ELISA of Fab in supernatants after phage panning.

Test [2] concerns the target T2, Human CD137-his (human, UniProt Q07011 24-186).
T2 construct: Bought reagent; also called Human CD137-His (Sino Biological, 10041-H08H)
As to the kind of experiment: BLI (Octet), second round, antibody captured on AHC sensor. As for the experimental part:
(§1) Biolayer interferometry was used to measure the association and dissociation constants for the binding kinetics of the anti-CD137 antibodies. The binding kinetics was measured on a FortieBio Octet Red 96 at 30° C. and analyzed with the FortieBio Data Analysis 9.0 software. Anti-human-IgG Fc (AHC) sensor was used to capture the anti-CD137 antibodies or control antibodies. A kinetic buffer only well was set as a reference well for subtraction during data processing. Data were fitted with a 1:1 Langmuir model for association and dissociation using Rmax linked global fitting for each antibody-antigen binding. Human CD137-his is a recombinant CD137 antigen with a poly histidine tag fused to C-terminus of human CD137 antigen (Sino Biological, 10041-H08H). Cyno CD137-his is a recombinant CD137 antigen with a poly histidine tag fused to C-terminus of cynomolgus CD137 antigen (Sino Biological, 90847-K02H-100).

In test [3] the target is T2, Human CD137-his. Kind of test: BLI (Octet), third comparison, antibody captured on AHC sensor. How it is done:
as §1

Test [4] deals with T3, human CD137-Fc fusion protein (human, UniProt Q07011 24-186, limits assumed).
T3 construct: also called huCD137
As to the kind of experiment: ELISA, hybridoma supernatant on plates coated with human CD137-Fc fusion protein. As for the experimental part: Hybridoma screening. Detection of binding to huCD137 by ELISA: To identify hybridomas secreting anti-human CD137 antibodies, ELISA plates (Corning) were coated with human CD137-Fc fusion protein at 1 μg/ml in PBS overnight at 4° C. […] Thirty microliters of supernatants diluted 1:3 in PBS were added to the plates and incubated for 1-2 hour at ambient temperature. Afterwards, the plates were washed as before, and binding of antibodies was detected through Horseradish peroxidase (HRP)-conjugated goat F(ab′)2 anti-human IgG. The plates were developed with TMB and read at 450 nm.

Test [5] concerns the target T4, CD137 on CD137 stably transfected 293T cells (UniProt Q07011 24-255, limits assumed).
T4 construct: whole, on cells; also called CD137/NF-κB reporter cells
Kind of test: flow cytometry, whole cell binding to CD137/NFkB 293T cells, Alexa Fluor 488 anti-human IgG F(ab')2 secondary, median fluorescence intensity. How it is done: (§2) The binding affinity of bispecific antibodies to cell surface receptors was also quantified in whole cell binding assay. […] Afterwards, cells were washed with PBS twice and then incubated with secondary Alexa Fluor® 488 AffiniPure Goat Anti-Human IgG, F(ab′)2 fragment specific antibody (Jackson ImmunoResearch, Code 109-545-006) for 30 min at 4° C. in FACS buffer. The cells were then washed with PBS twice and resuspended in FACS buffer. […] The median fluorescence intensity was fitted using a non-linear model with GraphPad 8.0.
(§3) The anti-CD137×EGFR bispecific antibodies included variants with IgG1 wild type Fc, IgG1 Fc with LALA mutation and different linkers.

In test [6] the target is T5, EGFR on SK-Hep1 cells (UniProt P00533 25-1210, limits assumed).
T5 construct: whole, on cells; also called EGFR positive SK-Hep1 tumor cells; EGFR high SK-Hep1 cells
Kind of test: flow cytometry, whole cell binding to SKHep1 EGFR high cells, Alexa Fluor 488 anti-human IgG F(ab')2 secondary, median fluorescence intensity. How it is done:
as §2, §3

Changes are numbered by the printed parent chain. Names may count otherwise.

T4 sequence (Q07011 24-255 limits assumed): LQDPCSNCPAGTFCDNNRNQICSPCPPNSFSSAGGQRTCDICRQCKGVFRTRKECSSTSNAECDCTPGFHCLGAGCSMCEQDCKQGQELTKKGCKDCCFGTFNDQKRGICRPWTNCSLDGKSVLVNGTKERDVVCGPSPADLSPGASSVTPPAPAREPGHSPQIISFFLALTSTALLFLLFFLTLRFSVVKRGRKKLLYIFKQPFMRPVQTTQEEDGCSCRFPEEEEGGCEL

B1: Clone 23 (Fab in supernatant) (Fab, V domains shown)
VH: QVQLVQSGAEVKKPGASVKVSCKASGFNIKDTYIHWVRQAPGQGLEWMGKIDPANGQTEYAQKFQGRVTMTRDTSTSTVYMELSSLRSEDTAVYYCTTGNLHYALMDYWGQGTSVTVSS
VL: DIQMTQSPSSVSASVGDRVTITCKASQAINTYLSWYQQKPGKAPKLLIYRANRMVGGVPSRFSGSGSGTDFTLTISSLQPEDFATYYCLQYRDFPYTFGGGTKLEIKR
notes: Screened as Fab in supernatant
In the case of B1, in test [1], the binding result is “binds”.

B2: Clone 19 (Fab in supernatant) (Fab, V domains shown)
VH: B1 VH with I29M, Q57A, A104G
VL: B1 VL with V55G, G56D, Y91S, R92D
notes: as for B1
For B2, the binding result in test [1] is “binds”.

B3: Clone 25 (Fab in supernatant) (Fab, V domains shown)
VH: B1 VH with K30Q, K50R, Q57N, T58S, A104G
VL: B1 VL with A51D, M54K, G56D, R92Q, T97K
notes: as for B1
In the case of B3, in test [1], the binding result is given as “binds”.

B4: Clone 9 (Fab in supernatant) (Fab, V domains shown)
VH: B1 VH with I29L, Q57N
VL: B1 VL with N30A, V55Y, G56D, Y91F, R92D
notes: as for B1
As to B4, the binding result in test [1] is recorded as “binds”.

B5: Clone 35 (Fab in supernatant) (Fab, V domains shown)
VH: B1 VH with K30N, K50R, Q57Y
VL: B1 VL with N30A, G56D, Y91F, R92Q
notes: as for B1
On to B5, for which the binding result in test [1] is “binds”.

B6: Clone 18 (Fab in supernatant) (Fab, V domains shown)
VH: B1 VH with K23Q, E46G, Q57M, M70V
VL: B1 VL with I29P, G56D, R92E
notes: as for B1
B6: the binding result in test [1] is recorded as “binds”.

B7: Clone 5 (Fab in supernatant) (Fab, V domains shown)
VH: B1 VH with K30R, Q57N, A104G
VL: B1 VL with L33H, A51V, G56D, R92L
notes: as for B1
In the case of B7, the binding result in test [1] was “binds”.

B8: Clone 2-11 (Fab in supernatant) (Fab, V domains shown)
VH: B1 VH with Q57G
VL: B1 VL with A28P, A51V, M54K, G56D, R92V
notes: as for B1
On to B8, for which the binding result in test [1] is listed as “binds”.

B9: Clone 33 (Fab in supernatant) (Fab, V domains shown)
VH: B1 VH with H35Q, Q57N, E59M
VL: B1 VL with A28T, V55P, G56D, R92D
notes: as for B1
As for B9, in test [1], the binding result is on record as “binds”.

B10: Clone 20 (Fab in supernatant) (Fab, V domains shown)
VH: B1 VH with I29M, Q57D
VL: B1 VL with M54A, G56D, R92L
notes: as for B1
Consider B10, for which the binding result in test [1] is listed as “binds”.

B11: Clone 3 (Fab in supernatant) (Fab, V domains shown)
VH: B1 VH with I29P, K50R, Q57F
VL: B1 VL with G56D, P80H, Y91S, R92D
notes: Screened as Fab in SS320 culture supernatant
As for B11, the binding result in test [1] is “binds”.

B12: 2-9-1 IgG1 SELF (antibody)
heavy: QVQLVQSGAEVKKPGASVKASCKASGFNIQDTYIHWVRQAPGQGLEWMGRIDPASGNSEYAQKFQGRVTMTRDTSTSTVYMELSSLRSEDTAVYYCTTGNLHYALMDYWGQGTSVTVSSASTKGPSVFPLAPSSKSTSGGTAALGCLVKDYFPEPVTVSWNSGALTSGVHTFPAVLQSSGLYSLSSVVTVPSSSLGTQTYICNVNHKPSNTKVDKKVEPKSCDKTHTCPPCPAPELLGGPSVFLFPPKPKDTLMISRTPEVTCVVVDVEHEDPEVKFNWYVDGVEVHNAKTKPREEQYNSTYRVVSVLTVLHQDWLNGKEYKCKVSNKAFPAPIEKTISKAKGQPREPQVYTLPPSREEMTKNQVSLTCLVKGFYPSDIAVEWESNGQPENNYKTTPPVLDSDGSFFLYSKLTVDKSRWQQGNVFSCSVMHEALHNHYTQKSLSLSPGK
light: DIQMTQSPSSVSASVGDRVTITCKASQPINTYLSWYQQKPGKAPKLLIYRVNRKVDGVPSRFSGSGSGTDFTLTISSLQPEDFATYYCLQYLDFPYTFGGGTKLEIKRTVAAPSVFIFPPSDEQLKSGTASVVCLLNNFYPREAKVQWKVDNALQSGNSQESVTEQDSKDSTYSLSSTLTLSKADYEKHKVYACEVTHQGLSSPVTKSFNRGEC
notes: Subclone of 2-9 with an IgG1 Fc carrying S267E/L328F; also called clone 2-9-1 IgG1 SELF; Clone 2-9 IgG1 SELF
Consider B12, for which, in test [2], binding was characterised by a dissociation constant (Kd) of 6.55 nM, the koff stood at 0.00034 s⁻¹ and the kon stood at 52000 M⁻¹ s⁻¹. In test [3], the affinity, expressed as Kd, was 11.1 nM; the koff is 0.0006 s⁻¹; the kon was 54100 M⁻¹ s⁻¹.

B13: 2-9-2 IgG4 (antibody)
heavy: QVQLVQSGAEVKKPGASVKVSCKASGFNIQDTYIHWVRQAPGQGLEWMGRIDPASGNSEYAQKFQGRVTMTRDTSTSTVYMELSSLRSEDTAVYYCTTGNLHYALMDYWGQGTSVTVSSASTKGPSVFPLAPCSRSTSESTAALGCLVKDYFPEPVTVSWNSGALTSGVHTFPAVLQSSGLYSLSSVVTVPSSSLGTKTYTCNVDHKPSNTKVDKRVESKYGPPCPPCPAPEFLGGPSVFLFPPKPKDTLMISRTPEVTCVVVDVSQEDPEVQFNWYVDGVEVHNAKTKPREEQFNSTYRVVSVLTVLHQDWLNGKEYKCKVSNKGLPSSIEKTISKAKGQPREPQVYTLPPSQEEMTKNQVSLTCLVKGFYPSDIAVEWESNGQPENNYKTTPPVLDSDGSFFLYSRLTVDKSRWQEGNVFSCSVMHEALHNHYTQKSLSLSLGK
light: B12 light
notes: Subclone of 2-9; also called clone 2-9-2 IgG4 wt
B13: in test [3], the equilibrium dissociation constant (Kd) was 12.9 nM, the koff amounted to 0.000801 s⁻¹ and the kon amounted to 62200 M⁻¹ s⁻¹.

B14: hybridoma anti-CD137 antibody clone 6.62 (antibody, V domains shown)
VH: QIQLVQSGPELKKPGETVKISCKASGYSFTDYSIHWVKQAPGKGLKWMGWMNTETGEPAYADDFKGRFAFSLETAASTAYLQINHLRDEDTATYFCTRSSYGYFDYWGQGTTLTVSS
VL: DVVMTQTPLSLPVSLGDQAAISCRSSQTLEHINGNTYLEWYLQKPGQSPKLLIYKVSDRFSGVPDRFSGSGSGTGFTLKISRVEAEDLGVYYCFQGSHFPLTFGGGTKLELK
notes: Tested as hybridoma supernatant
On to B14, for which, in test [4], the binding result is listed as “binds”.

B15: aCD137-scFv-αEGFR-IgG1-Linker7 (bispecific antibody)
heavy: not shown
light: EIVLTQSPATLSLSPGERATLSCRASQSIGTNIHWYQQKPGQAPRLLIKYASESISGIPARFSGSGSGTDFTLTISSLEPEDFAVYYCQQNNNWPTSFGGGTKVEIKRTVAAPSVFIFPPSDEQLKSGTASVVCLLNNFYPREAKVQWKVDNALQSGNSQESVTEQDSKDSTYSLSSTLTLSKADYEKHKVYACEVTHQGLSSPVTKSFNRGEC
notes: also called Anti-EGFR HC-anti-CD137 scFv-IgG1-Linker 7 (HCC)
Take B15: the “EC50 (read off the curve)” value in test [5] is roughly 10 nM; in test [6], roughly 0.3 nM.

B16: aCD137-scFv-αEGFR-IgG1-Linker 10 (bispecific antibody)
heavy: not shown
light: B15 light
Consider B16, for which the “EC50 (read off the curve)” value in test [5] was roughly 10 nM; in test [6], roughly 0.3 nM.

B17: aCD137-scFv-αEGFR-IgG1-LALA-Linker 10 (bispecific antibody)
heavy: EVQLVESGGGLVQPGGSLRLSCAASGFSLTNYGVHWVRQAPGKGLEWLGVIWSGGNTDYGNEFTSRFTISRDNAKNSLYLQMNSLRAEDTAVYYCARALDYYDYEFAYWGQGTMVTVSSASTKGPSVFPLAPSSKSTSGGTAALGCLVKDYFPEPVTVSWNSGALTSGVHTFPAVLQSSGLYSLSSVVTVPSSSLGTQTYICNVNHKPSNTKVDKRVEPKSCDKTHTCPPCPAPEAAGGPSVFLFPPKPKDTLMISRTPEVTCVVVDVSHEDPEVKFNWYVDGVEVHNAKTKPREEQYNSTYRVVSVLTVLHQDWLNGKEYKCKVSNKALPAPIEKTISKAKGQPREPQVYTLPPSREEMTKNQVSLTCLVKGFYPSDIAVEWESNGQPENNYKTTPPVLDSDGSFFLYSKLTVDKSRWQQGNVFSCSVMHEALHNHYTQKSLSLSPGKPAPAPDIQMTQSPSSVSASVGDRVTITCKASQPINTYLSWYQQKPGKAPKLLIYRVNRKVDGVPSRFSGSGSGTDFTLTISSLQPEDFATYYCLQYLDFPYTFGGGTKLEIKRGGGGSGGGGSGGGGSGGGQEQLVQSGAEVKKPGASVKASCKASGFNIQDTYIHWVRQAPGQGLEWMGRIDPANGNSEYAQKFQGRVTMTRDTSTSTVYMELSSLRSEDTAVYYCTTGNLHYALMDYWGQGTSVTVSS
light: B15 light
notes: The Linker 10 bispecific with the LALA mutation in the IgG1 Fc; also called Anti-EGFR HC-anti-CD137 scFv-IgG1 LALA-Linker 10 (HCC)
For the molecule B17, the “EC50 (read off the curve)” value is roughly 10 nM in test [5] and roughly 0.2 nM in test [6].

B18: aCD137scFv-αEGFR-IgG1-LALA (Linker 7) (bispecific antibody)
heavy: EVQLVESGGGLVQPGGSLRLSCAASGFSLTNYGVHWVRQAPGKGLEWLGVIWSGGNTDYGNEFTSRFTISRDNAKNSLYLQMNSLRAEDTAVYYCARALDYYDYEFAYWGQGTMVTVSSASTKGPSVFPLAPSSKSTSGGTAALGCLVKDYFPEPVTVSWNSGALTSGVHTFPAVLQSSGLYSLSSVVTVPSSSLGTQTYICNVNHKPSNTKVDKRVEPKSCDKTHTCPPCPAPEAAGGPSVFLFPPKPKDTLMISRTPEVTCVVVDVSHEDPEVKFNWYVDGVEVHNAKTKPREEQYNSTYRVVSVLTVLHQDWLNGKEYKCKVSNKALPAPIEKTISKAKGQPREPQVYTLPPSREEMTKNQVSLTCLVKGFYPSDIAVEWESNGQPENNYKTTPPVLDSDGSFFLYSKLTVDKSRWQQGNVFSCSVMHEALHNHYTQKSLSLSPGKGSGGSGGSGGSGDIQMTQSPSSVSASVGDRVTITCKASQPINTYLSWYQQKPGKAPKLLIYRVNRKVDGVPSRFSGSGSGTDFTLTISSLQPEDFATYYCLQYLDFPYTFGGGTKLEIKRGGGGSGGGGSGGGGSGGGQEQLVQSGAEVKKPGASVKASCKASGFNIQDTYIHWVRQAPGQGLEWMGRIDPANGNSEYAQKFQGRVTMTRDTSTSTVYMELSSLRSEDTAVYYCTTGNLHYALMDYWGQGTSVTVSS
light: B15 light
notes: The Linker 7 bispecific with the LALA mutation in the IgG1 Fc; also called Anti-EGFR-HC-anti-CD137 scFv-IgG1-LALA-Linker 7 (HCC); αCD137scFv-αEGFR-IgG1 LALA
Regarding B18, the entries for the “EC50 (read off the curve)” value in test [5] and in test [6] were roughly 10 nM and roughly 0.2 nM, respectively.

B19: hybridoma anti-CD137 antibody clone 29.39 (antibody, V domains shown)
VH: EVKLMESGAELVKPGASVKLSCTASGFNIKDTYIHWVKQRPEQGLEWIGKIDPANGNTEYDLNFQGRATITADTSSNTAYLQLSSLTSEDTAVYYCTTGNLHYYLMDYWGQGTSVTSLE
VL: DIVMTQSPSSMYASLGERVTITCKASQAINTYLSWFQQKPGKSPKTLIYRANRMVDGVPSRFSGSGSGQDYSLTISSLDYEDMGIYYCLQYDDFPYTFGGGTKLEIKR
notes: as for B14
B19: the binding result in test [4] is “binds”.

B20: hybridoma anti-CD137 antibody clone 30.19 (antibody, V domains shown)
VH: B14 VH
VL: B19 VL
notes: as for B14
For B20, in test [4], the binding result is reported as “binds”.

B21: hybridoma anti-CD137 antibody clone 44.21 (antibody, V domains shown)
VH: B19 VH
VL: DIVMTQTPLSLPVSLGDHASISCRSSQSLVHSNGNTYLHWFLQKPGQSPKLLIYKVSNRFSGVPDRFSGSGSGTDFTLKISRVEAEDLGVYFCSQNAHVPWTFGGGTKRKSNE
notes: as for B14
With B21, in test [4], the binding result is listed as “binds”.

B22: hybridoma anti-CD137 antibody clone 3.10 (antibody, V domains shown)
VH: EVQLVESGPGLVAPSQSLSITCTVSGFSLTTYDVSWIRQPPGKGLEWLGVIWTGGGTNYNSTFMSRLTISKDNSKNQVFLKMNSLQTDDTATYYCVRVDYWGQGTTLTVSR
VL: B21 VL with I2V, D17G, S32N, R109L, K110E, S111I, N112K, E113R
notes: as for B14
Consider B22, for which, in test [4], the binding result was “binds”.
